# Starred links: 1 amine or outer side, 2 acyl side, 3 side chain; linkers in the order of their positions; H or OH if unused. Positions of bridges follow the written chain, without caps; N, C: chain ends. Groups on a side chain read outwards from the residue. No end group written: not given here. *: point of attachment. X1 = (S)‑4‑Carboxy‑4‑(19-carboxynonadecanoylamino)butyryl, O=C(O)CCCCCCCCCCCCCCCCCCC(=O)N[C@@H](CCC(=O)*)C(=O)O; C20 diacid = O=C(O)CCCCCCCCCCCCCCCCCCC(=O)*; γGlu = O=C(O)[C@H](CCC(=O)[*:2])N[*:1]; AEEA = NCCOCCOCC(=O)O
# T1: human calcitonin (a) receptor (human, UniProt P30988 25-474)
# T1 sequence (looked up): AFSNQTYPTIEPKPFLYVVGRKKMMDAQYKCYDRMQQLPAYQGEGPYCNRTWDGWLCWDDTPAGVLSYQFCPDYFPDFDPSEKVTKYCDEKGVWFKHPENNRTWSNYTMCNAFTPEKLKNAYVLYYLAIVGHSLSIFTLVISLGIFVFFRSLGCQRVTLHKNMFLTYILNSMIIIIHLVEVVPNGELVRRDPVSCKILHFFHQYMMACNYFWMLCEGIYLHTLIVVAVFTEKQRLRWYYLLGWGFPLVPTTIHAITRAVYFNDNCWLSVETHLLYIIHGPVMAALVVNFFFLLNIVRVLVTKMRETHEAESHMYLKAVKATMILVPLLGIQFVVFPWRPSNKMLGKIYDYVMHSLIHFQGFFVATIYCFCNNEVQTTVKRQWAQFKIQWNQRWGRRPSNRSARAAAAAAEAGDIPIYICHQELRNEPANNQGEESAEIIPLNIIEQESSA
# T2: human amylin 3(a) receptor (human calcitonin receptor + RAMP-3) (human, UniProt P30988 25-474; O60896 24-148)
# T2 sequence (looked up) 1: T1 sequence (looked up)
# T2 sequence (looked up) 2: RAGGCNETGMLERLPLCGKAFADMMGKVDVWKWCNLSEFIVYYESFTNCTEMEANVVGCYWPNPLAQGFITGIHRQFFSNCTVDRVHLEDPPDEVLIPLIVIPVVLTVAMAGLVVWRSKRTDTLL
# B1: N-alpha-[(S)-4-Carboxy-4-(19-carboxynonadecanoylamino)butyryl]-[des1,Gly3,Glu14,His17,Arg18,Gln21,Gln22,Glu31,Gly35]-pramlintide (peptide)
# peptide: {C20 diacid-γGlu}-CGTATCATQRLAEFLHRSSQQFGPILPPTEVGSGTY-NH2
# modifications: disulfide 1-6
# SMILES: CC[C@H](C)[C@H](NC(=O)[C@@H]1CCCN1C(=O)CNC(=O)[C@H](Cc1ccccc1)NC(=O)[C@H](CCC(N)=O)NC(=O)[C@H](CCC(N)=O)NC(=O)[C@H](CO)NC(=O)[C@H](CO)NC(=O)[C@H](CCCNC(=N)N)NC(=O)[C@H](Cc1c[nH]cn1)NC(=O)[C@H](CC(C)C)NC(=O)[C@H](Cc1ccccc1)NC(=O)[C@H](CCC(=O)O)NC(=O)[C@H](C)NC(=O)[C@H](CC(C)C)NC(=O)[C@H](CCCNC(=N)N)NC(=O)[C@H](CCC(N)=O)NC(=O)[C@@H](NC(=O)[C@H](C)NC(=O)[C@@H]1CSSC[C@H](NC(=O)CC[C@H](NC(=O)CCCCCCCCCCCCCCCCCCC(=O)O)C(=O)O)C(=O)NCC(=O)N[C@@H]([C@@H](C)O)C(=O)N[C@@H](C)C(=O)N[C@@H]([C@@H](C)O)C(=O)N1)[C@@H](C)O)C(=O)N[C@@H](CC(C)C)C(=O)N1CCC[C@H]1C(=O)N1CCC[C@H]1C(=O)N[C@H](C(=O)N[C@@H](CCC(=O)O)C(=O)N[C@H](C(=O)NCC(=O)N[C@@H](CO)C(=O)NCC(=O)N[C@H](C(=O)N[C@@H](Cc1ccc(O)cc1)C(N)=O)[C@@H](C)O)C(C)C)[C@@H](C)O
# B2: N-alpha-[(S)-4-Carboxy-4-(19-carboxynonadecanoylamino)butyryl]-[His1,Glu14,His17,Arg18,Ala25,Pro26,Ser28,Ser29]-pramlintide (peptide)
# peptide: X1-HCNTATCATQRLAEFLHRSSNNFGAPLSSTNVGSNTY-NH2
# modifications: disulfide 2-7
# SMILES: CC(C)C[C@H](NC(=O)[C@H](CCCNC(=N)N)NC(=O)[C@H](CCC(N)=O)NC(=O)[C@@H](NC(=O)[C@H](C)NC(=O)[C@@H]1CSSC[C@H](NC(=O)[C@H](Cc2c[nH]cn2)NC(=O)CC[C@H](NC(=O)CCCCCCCCCCCCCCCCCCC(=O)O)C(=O)O)C(=O)N[C@@H](CC(N)=O)C(=O)N[C@@H]([C@@H](C)O)C(=O)N[C@@H](C)C(=O)N[C@@H]([C@@H](C)O)C(=O)N1)[C@@H](C)O)C(=O)N[C@@H](C)C(=O)N[C@@H](CCC(=O)O)C(=O)N[C@@H](Cc1ccccc1)C(=O)N[C@@H](CC(C)C)C(=O)N[C@@H](Cc1c[nH]cn1)C(=O)N[C@@H](CCCNC(=N)N)C(=O)N[C@@H](CO)C(=O)N[C@@H](CO)C(=O)N[C@@H](CC(N)=O)C(=O)N[C@@H](CC(N)=O)C(=O)N[C@@H](Cc1ccccc1)C(=O)NCC(=O)N[C@@H](C)C(=O)N1CCC[C@H]1C(=O)N[C@@H](CC(C)C)C(=O)N[C@@H](CO)C(=O)N[C@@H](CO)C(=O)N[C@H](C(=O)N[C@@H](CC(N)=O)C(=O)N[C@H](C(=O)NCC(=O)N[C@@H](CO)C(=O)N[C@@H](CC(N)=O)C(=O)N[C@H](C(=O)N[C@@H](Cc1ccc(O)cc1)C(N)=O)[C@@H](C)O)C(C)C)[C@@H](C)O
# B3: N-alpha-[(S)-4-Carboxy-4-(19-carboxynonadecanoylamino)butyryl]-[Glu1,Glu14,His17,Arg18]-pramlintide (peptide)
# peptide: {C20 diacid-γGlu}-ECNTATCATQRLAEFLHRSSNNFGPILPPTNVGSNTY-NH2
# modifications: disulfide 2-7
# SMILES: CC[C@H](C)[C@H](NC(=O)[C@@H]1CCCN1C(=O)CNC(=O)[C@H](Cc1ccccc1)NC(=O)[C@H](CC(N)=O)NC(=O)[C@H](CC(N)=O)NC(=O)[C@H](CO)NC(=O)[C@H](CO)NC(=O)[C@H](CCCNC(=N)N)NC(=O)[C@H](Cc1c[nH]cn1)NC(=O)[C@H](CC(C)C)NC(=O)[C@H](Cc1ccccc1)NC(=O)[C@H](CCC(=O)O)NC(=O)[C@H](C)NC(=O)[C@H](CC(C)C)NC(=O)[C@H](CCCNC(=N)N)NC(=O)[C@H](CCC(N)=O)NC(=O)[C@@H](NC(=O)[C@H](C)NC(=O)[C@@H]1CSSC[C@H](NC(=O)[C@H](CCC(=O)O)NC(=O)CC[C@H](NC(=O)CCCCCCCCCCCCCCCCCCC(=O)O)C(=O)O)C(=O)N[C@@H](CC(N)=O)C(=O)N[C@@H]([C@@H](C)O)C(=O)N[C@@H](C)C(=O)N[C@@H]([C@@H](C)O)C(=O)N1)[C@@H](C)O)C(=O)N[C@@H](CC(C)C)C(=O)N1CCC[C@H]1C(=O)N1CCC[C@H]1C(=O)N[C@H](C(=O)N[C@@H](CC(N)=O)C(=O)N[C@H](C(=O)NCC(=O)N[C@@H](CO)C(=O)N[C@@H](CC(N)=O)C(=O)N[C@H](C(=O)N[C@@H](Cc1ccc(O)cc1)C(N)=O)[C@@H](C)O)C(C)C)[C@@H](C)O
# B4: N-alpha-[(S)-4-Carboxy-4-(19-carboxynonadecanoylamino)butyryl]-[His1,Glu14,His17,Arg18,Glu25,Ser28,Arg29]-pramlintide (peptide)
# peptide: {C20 diacid-γGlu}-HCNTATCATQRLAEFLHRSSNNFGEILSRTNVGSNTY-NH2
# modifications: disulfide 2-7
# SMILES: CC[C@H](C)[C@H](NC(=O)[C@H](CCC(=O)O)NC(=O)CNC(=O)[C@H](Cc1ccccc1)NC(=O)[C@H](CC(N)=O)NC(=O)[C@H](CC(N)=O)NC(=O)[C@H](CO)NC(=O)[C@H](CO)NC(=O)[C@H](CCCNC(=N)N)NC(=O)[C@H](Cc1c[nH]cn1)NC(=O)[C@H](CC(C)C)NC(=O)[C@H](Cc1ccccc1)NC(=O)[C@H](CCC(=O)O)NC(=O)[C@H](C)NC(=O)[C@H](CC(C)C)NC(=O)[C@H](CCCNC(=N)N)NC(=O)[C@H](CCC(N)=O)NC(=O)[C@@H](NC(=O)[C@H](C)NC(=O)[C@@H]1CSSC[C@H](NC(=O)[C@H](Cc2c[nH]cn2)NC(=O)CC[C@H](NC(=O)CCCCCCCCCCCCCCCCCCC(=O)O)C(=O)O)C(=O)N[C@@H](CC(N)=O)C(=O)N[C@@H]([C@@H](C)O)C(=O)N[C@@H](C)C(=O)N[C@@H]([C@@H](C)O)C(=O)N1)[C@@H](C)O)C(=O)N[C@@H](CC(C)C)C(=O)N[C@@H](CO)C(=O)N[C@@H](CCCNC(=N)N)C(=O)N[C@H](C(=O)N[C@@H](CC(N)=O)C(=O)N[C@H](C(=O)NCC(=O)N[C@@H](CO)C(=O)N[C@@H](CC(N)=O)C(=O)N[C@H](C(=O)N[C@@H](Cc1ccc(O)cc1)C(N)=O)[C@@H](C)O)C(C)C)[C@@H](C)O
# B5: N-alpha-[(S)-4-Carboxy-4-(19-carboxynonadecanoylamino)butyryl]-[His1,Glu14,His17,Arg18,Glu22,Ala25,Arg26,Ser28,Ser29]-pramlintide (peptide)
# peptide: X1-HCNTATCATQRLAEFLHRSSNEFGARLSSTNVGSNTY-NH2
# modifications: disulfide 2-7
# SMILES: CC(C)C[C@H](NC(=O)[C@H](CCCNC(=N)N)NC(=O)[C@H](CCC(N)=O)NC(=O)[C@@H](NC(=O)[C@H](C)NC(=O)[C@@H]1CSSC[C@H](NC(=O)[C@H](Cc2c[nH]cn2)NC(=O)CC[C@H](NC(=O)CCCCCCCCCCCCCCCCCCC(=O)O)C(=O)O)C(=O)N[C@@H](CC(N)=O)C(=O)N[C@@H]([C@@H](C)O)C(=O)N[C@@H](C)C(=O)N[C@@H]([C@@H](C)O)C(=O)N1)[C@@H](C)O)C(=O)N[C@@H](C)C(=O)N[C@@H](CCC(=O)O)C(=O)N[C@@H](Cc1ccccc1)C(=O)N[C@@H](CC(C)C)C(=O)N[C@@H](Cc1c[nH]cn1)C(=O)N[C@@H](CCCNC(=N)N)C(=O)N[C@@H](CO)C(=O)N[C@@H](CO)C(=O)N[C@@H](CC(N)=O)C(=O)N[C@@H](CCC(=O)O)C(=O)N[C@@H](Cc1ccccc1)C(=O)NCC(=O)N[C@@H](C)C(=O)N[C@@H](CCCNC(=N)N)C(=O)N[C@@H](CC(C)C)C(=O)N[C@@H](CO)C(=O)N[C@@H](CO)C(=O)N[C@H](C(=O)N[C@@H](CC(N)=O)C(=O)N[C@H](C(=O)NCC(=O)N[C@@H](CO)C(=O)N[C@@H](CC(N)=O)C(=O)N[C@H](C(=O)N[C@@H](Cc1ccc(O)cc1)C(N)=O)[C@@H](C)O)C(C)C)[C@@H](C)O
# B6: N-alpha-[(S)-4-Carboxy-4-(19-carboxynonadecanoylamino)butyryl]-[des1,Gly3,Glu14,His17,Arg18,Glu31,Gly35]-pramlintide (peptide)
# peptide: {C20 diacid-γGlu}-CGTATCATQRLAEFLHRSSNNFGPILPPTEVGSGTY-NH2
# modifications: disulfide 1-6
# SMILES: CC[C@H](C)[C@H](NC(=O)[C@@H]1CCCN1C(=O)CNC(=O)[C@H](Cc1ccccc1)NC(=O)[C@H](CC(N)=O)NC(=O)[C@H](CC(N)=O)NC(=O)[C@H](CO)NC(=O)[C@H](CO)NC(=O)[C@H](CCCNC(=N)N)NC(=O)[C@H](Cc1c[nH]cn1)NC(=O)[C@H](CC(C)C)NC(=O)[C@H](Cc1ccccc1)NC(=O)[C@H](CCC(=O)O)NC(=O)[C@H](C)NC(=O)[C@H](CC(C)C)NC(=O)[C@H](CCCNC(=N)N)NC(=O)[C@H](CCC(N)=O)NC(=O)[C@@H](NC(=O)[C@H](C)NC(=O)[C@@H]1CSSC[C@H](NC(=O)CC[C@H](NC(=O)CCCCCCCCCCCCCCCCCCC(=O)O)C(=O)O)C(=O)NCC(=O)N[C@@H]([C@@H](C)O)C(=O)N[C@@H](C)C(=O)N[C@@H]([C@@H](C)O)C(=O)N1)[C@@H](C)O)C(=O)N[C@@H](CC(C)C)C(=O)N1CCC[C@H]1C(=O)N1CCC[C@H]1C(=O)N[C@H](C(=O)N[C@@H](CCC(=O)O)C(=O)N[C@H](C(=O)NCC(=O)N[C@@H](CO)C(=O)NCC(=O)N[C@H](C(=O)N[C@@H](Cc1ccc(O)cc1)C(N)=O)[C@@H](C)O)C(C)C)[C@@H](C)O
# Target: T1, human calcitonin (a) receptor
# Test: cell-based or functional assay
row,CTa receptor human EC50,Binder
1,0.284 nM,B1
2,0.24 nM,B2
3,0.469 nM,RCNTATCATQRLAEFLHRSSK([AEEA-AEEA-γGlu-19‑carboxyheptadecanoyl])NFGPILPPTNVGSNTY-NH2 (disulfide 2-7)
4,1.65 nM,B3
5,0.131 nM,B4
6,0.279 nM,B5
7,0.222 nM,B6

# Target: T2, human amylin 3(a) receptor (human …)
# Test: cell-based or functional assay
row,Amylin receptor human EC50,Binder
1,0.253 nM,B1
2,0.115 nM,B2
3,0.0994 nM,RCNTATCATQRLAEFLHRSSK([AEEA-AEEA-γGlu-19‑carboxyheptadecanoyl])NFGPILPPTNVGSNTY-NH2 (disulfide 2-7)
4,0.353 nM,B3
5,0.0779 nM,B4
6,0.127 nM,B5
7,0.164 nM,B6
